± gives the standard error. For some of these results: This sample holds only a part of the variants without activity.
B1: glmS ribozyme (parent)
chain: AUAAAAGCGCCAGAACUACAGAAAUGUAGUUGACGAGGAGGAGGUUUAUCGAAUUUUCGGCGGAUGCCUCCAAA

Legend:
Details in all cases: with glucosamine-6-phosphate
glucosamine-6-phosphate [1] = variants of: B1; test: kcat; higher = faster cleavage; RNA array
Outline: (§1)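 Tracking of barcoded ribozyme variants used a hybridised Cy3 probe at 37 °C, after in situ transcription by E. coli RNA polymerase on sequenced MiSeq chips. The flowed solution held 40 μM to 10 mM glucosamine-6-phosphate in HEPES/KCl/Mg(OAc)2 buffer, and imaging ran over ~14 h. kobs was taken from exponential decay fits of normalised per-tile medians, and kcat and KM from weighted Michaelis–Menten fits.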

glucosamine-6-phosphate [2] = variants of: B1; test: self-cleavage kobs at 40 uM GlcN6P; higher = faster cleavage; RNA array
Outline: as §1

glucosamine-6-phosphate [3] = variants of: B1; test: self-cleavage kobs at 640 uM GlcN6P; higher = faster cleavage; RNA array
Outline: as §1

glucosamine-6-phosphate [4] = variants of: B1; test: self-cleavage kobs at 2500 uM GlcN6P; higher = faster cleavage; RNA array
Outline: as §1

glucosamine-6-phosphate [5] = variants of: B1; test: self-cleavage kobs at 10000 uM GlcN6P; higher = faster cleavage; RNA array
Outline: as §1

glucosamine-6-phosphate [6] = variants of: B1; test: KM; higher = weaker cofactor use; RNA array
Outline: as §1

glucosamine-6-phosphate [7] = variants of: B1; test: self-cleavage kobs at 160 uM GlcN6P; higher = faster cleavage; RNA array
Outline: as §1

Variant: A14G G37A U54A
- kcat (glucosamine-6-phosphate [1]): 0.00578 ± 0.0027 s⁻¹
- self-cleavage kobs at 40 uM GlcN6P (glucosamine-6-phosphate [2]): 7.89e-05 ± 1.6e-05 s⁻¹
- self-cleavage kobs at 640 uM GlcN6P (glucosamine-6-phosphate [3]): 0.000505 ± 0.00013 s⁻¹
- self-cleavage kobs at 2500 uM GlcN6P (glucosamine-6-phosphate [4]): 0.00178 ± 0.00043 s⁻¹
- self-cleavage kobs at 10000 uM GlcN6P (glucosamine-6-phosphate [5]): 0.00406 ± 0.00062 s⁻¹

Variant: A33U C50U C68U
- kcat (glucosamine-6-phosphate [1]): 2.95e-05 ± 1.3e-05 s⁻¹
- self-cleavage kobs at 640 uM GlcN6P (glucosamine-6-phosphate [3]): < 1e-05 s⁻¹

Variant: A39C U47A
- kcat (glucosamine-6-phosphate [1]): 0.00575 ± 0.0015 s⁻¹
- KM (glucosamine-6-phosphate [6]): 4090 ± 1400 µM
- self-cleavage kobs at 40 uM GlcN6P (glucosamine-6-phosphate [2]): 8.72e-05 ± 1.3e-05 s⁻¹
- self-cleavage kobs at 160 uM GlcN6P (glucosamine-6-phosphate [7]): 0.000179 ± 2.3e-05 s⁻¹
- self-cleavage kobs at 640 uM GlcN6P (glucosamine-6-phosphate [3]): 0.000865 ± 0.0001 s⁻¹
- self-cleavage kobs at 2500 uM GlcN6P (glucosamine-6-phosphate [4]): 0.0021 ± 0.00033 s⁻¹
- self-cleavage kobs at 10000 uM GlcN6P (glucosamine-6-phosphate [5]): 0.00409 ± 0.00043 s⁻¹

Variant: G9A U45A
- kcat (glucosamine-6-phosphate [1]): 1.6e-05 ± 1.8e-06 s⁻¹
- self-cleavage kobs at 160 uM GlcN6P (glucosamine-6-phosphate [7]): < 1e-05 s⁻¹

Variant: G40A U56C
- kcat (glucosamine-6-phosphate [1]): 0.000181 ± 2.6e-05 s⁻¹
- KM (glucosamine-6-phosphate [6]): 2280 ± 720 µM
- self-cleavage kobs at 640 uM GlcN6P (glucosamine-6-phosphate [3]): 4.68e-05 ± 8.5e-06 s⁻¹
- self-cleavage kobs at 2500 uM GlcN6P (glucosamine-6-phosphate [4]): 8.42e-05 ± 1.1e-05 s⁻¹
- self-cleavage kobs at 10000 uM GlcN6P (glucosamine-6-phosphate [5]): 0.000157 ± 1.9e-05 s⁻¹

Variant: U46A C71U
- kcat (glucosamine-6-phosphate [1]): 0.00396 ± 0.00074 s⁻¹
- KM (glucosamine-6-phosphate [6]): 2020 ± 580 µM
- self-cleavage kobs at 40 uM GlcN6P (glucosamine-6-phosphate [2]): 8.79e-05 ± 1.3e-05 s⁻¹
- self-cleavage kobs at 160 uM GlcN6P (glucosamine-6-phosphate [7]): 0.000232 ± 6.3e-05 s⁻¹
- self-cleavage kobs at 640 uM GlcN6P (glucosamine-6-phosphate [3]): 0.000874 ± 0.00015 s⁻¹
- self-cleavage kobs at 2500 uM GlcN6P (glucosamine-6-phosphate [4]): 0.00353 ± 0.00069 s⁻¹
- self-cleavage kobs at 10000 uM GlcN6P (glucosamine-6-phosphate [5]): 0.00319 ± 0.00037 s⁻¹

Variant: A20G G37C C58A
- kcat (glucosamine-6-phosphate [1]): 1.09e-05 ± 2.8e-06 s⁻¹

Variant: G13C G41A
- kcat (glucosamine-6-phosphate [1]): 5.76e-05 ± 4.7e-06 s⁻¹
- self-cleavage kobs at 40 uM GlcN6P (glucosamine-6-phosphate [2]): < 1e-05 s⁻¹
- self-cleavage kobs at 640 uM GlcN6P (glucosamine-6-phosphate [3]): < 1e-05 s⁻¹

Variant: C50A G59A
- kcat (glucosamine-6-phosphate [1]): < 1e-05 s⁻¹
- self-cleavage kobs at 640 uM GlcN6P (glucosamine-6-phosphate [3]): < 1e-05 s⁻¹

Variant: G32U U54C
- kcat (glucosamine-6-phosphate [1]): 0.000958 ± 0.00028 s⁻¹
- KM (glucosamine-6-phosphate [6]): 5300 ± 2300 µM
- self-cleavage kobs at 640 uM GlcN6P (glucosamine-6-phosphate [3]): 0.000126 ± 1.5e-05 s⁻¹
- self-cleavage kobs at 2500 uM GlcN6P (glucosamine-6-phosphate [4]): 0.000272 ± 3.3e-05 s⁻¹
- self-cleavage kobs at 10000 uM GlcN6P (glucosamine-6-phosphate [5]): 0.000665 ± 8.6e-05 s⁻¹

Variant: A6C A53U
- kcat (glucosamine-6-phosphate [1]): 8.96e-05 ± 2.4e-06 s⁻¹
- KM (glucosamine-6-phosphate [6]): 3600 ± 220 µM
- self-cleavage kobs at 2500 uM GlcN6P (glucosamine-6-phosphate [4]): 3.64e-05 ± 7.4e-06 s⁻¹
- self-cleavage kobs at 10000 uM GlcN6P (glucosamine-6-phosphate [5]): 6.61e-05 ± 1.1e-05 s⁻¹

Variant: U31G G60A
- kcat (glucosamine-6-phosphate [1]): 1.46e-05 ± 6.5e-06 s⁻¹

Variant: G59A U65C
- kcat (glucosamine-6-phosphate [1]): 1.55e-05 ± 5.6e-06 s⁻¹

Variant: C8A C67A
- kcat (glucosamine-6-phosphate [1]): < 1e-05 s⁻¹
- self-cleavage kobs at 160 uM GlcN6P (glucosamine-6-phosphate [7]): < 1e-05 s⁻¹
- self-cleavage kobs at 2500 uM GlcN6P (glucosamine-6-phosphate [4]): < 1e-05 s⁻¹

Variant: U55A G66A
- kcat (glucosamine-6-phosphate [1]): 0.0303 ± 0.014 s⁻¹
- self-cleavage kobs at 40 uM GlcN6P (glucosamine-6-phosphate [2]): 0.000654 ± 7.1e-05 s⁻¹
- self-cleavage kobs at 160 uM GlcN6P (glucosamine-6-phosphate [7]): 0.00137 ± 0.0003 s⁻¹
- self-cleavage kobs at 640 uM GlcN6P (glucosamine-6-phosphate [3]): 0.00563 ± 0.00082 s⁻¹
- self-cleavage kobs at 2500 uM GlcN6P (glucosamine-6-phosphate [4]): 0.015 ± 0.0035 s⁻¹
- self-cleavage kobs at 10000 uM GlcN6P (glucosamine-6-phosphate [5]): 0.0286 ± 0.0061 s⁻¹

Variant: U49G C71U
- kcat (glucosamine-6-phosphate [1]): 0.00102 ± 0.00022 s⁻¹
- KM (glucosamine-6-phosphate [6]): 2160 ± 970 µM
- self-cleavage kobs at 40 uM GlcN6P (glucosamine-6-phosphate [2]): 3.07e-05 ± 9.2e-06 s⁻¹
- self-cleavage kobs at 640 uM GlcN6P (glucosamine-6-phosphate [3]): 0.000246 ± 2.9e-05 s⁻¹
- self-cleavage kobs at 2500 uM GlcN6P (glucosamine-6-phosphate [4]): 0.00041 ± 6.9e-05 s⁻¹
- self-cleavage kobs at 10000 uM GlcN6P (glucosamine-6-phosphate [5]): 0.000902 ± 7.8e-05 s⁻¹

Variant: U46C C71A
- kcat (glucosamine-6-phosphate [1]): 0.000545 ± 4.7e-05 s⁻¹
- KM (glucosamine-6-phosphate [6]): 811 ± 130 µM
- self-cleavage kobs at 160 uM GlcN6P (glucosamine-6-phosphate [7]): 8.19e-05 ± 2.2e-05 s⁻¹
- self-cleavage kobs at 640 uM GlcN6P (glucosamine-6-phosphate [3]): 0.000252 ± 4.5e-05 s⁻¹
- self-cleavage kobs at 2500 uM GlcN6P (glucosamine-6-phosphate [4]): 0.00045 ± 9.1e-05 s⁻¹
- self-cleavage kobs at 10000 uM GlcN6P (glucosamine-6-phosphate [5]): 0.000453 ± 0.00011 s⁻¹

Variant: C10A U69C
- kcat (glucosamine-6-phosphate [1]): 1.7e-05 ± 1.9e-06 s⁻¹

Variant: A12C U55A
- kcat (glucosamine-6-phosphate [1]): 0.0159 ± 0.0051 s⁻¹
- KM (glucosamine-6-phosphate [6]): 888 ± 360 µM
- self-cleavage kobs at 40 uM GlcN6P (glucosamine-6-phosphate [2]): 0.000742 ± 8.1e-05 s⁻¹
- self-cleavage kobs at 160 uM GlcN6P (glucosamine-6-phosphate [7]): 0.00192 ± 0.00036 s⁻¹
- self-cleavage kobs at 640 uM GlcN6P (glucosamine-6-phosphate [3]): 0.00819 ± 0.0014 s⁻¹
- self-cleavage kobs at 2500 uM GlcN6P (glucosamine-6-phosphate [4]): 0.0112 ± 0.0021 s⁻¹

Source: the supplement of paper PMC7125110
